Measurements from patent publication EP4659808A2 (Sanofi, dated 2025).

T1: human beta-DG extracellular domain (human, UniProt Q14118 654-749, biotinylated in the Example 6 ELISA)
T1 construct: extracellular domain; Expression of the soluble human protein is not described; also called hBeta-DG; hbeta-DG
T1 sequence (looked up): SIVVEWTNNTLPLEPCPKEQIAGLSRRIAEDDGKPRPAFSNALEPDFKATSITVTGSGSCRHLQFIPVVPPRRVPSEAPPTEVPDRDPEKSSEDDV

B1: triAb 3407 (bispecific antibody, human IgG1, kappa)
light 1: EIVLTQSPDFLSVTPKEKVTLTCRASQSISNNLHWYQQKSDQSPKLLIKYASQSISGIPSRFSGSGSGTDFTLTINSVEAEDAATYFCQQSKSWPRTFGGGTKLEIKDKTHTEIVLTQSPDFLSVTPKEKVTLTCRASQSISNNLHWYQQKSDQSPKLLIKYASQSISGIPSRFSGSGSGTDFTLTINSVEAEDAATYFCQQSKSWPRTFGGGTKLEIKDKTHTRTVAAPSVFIFPPSDEQLKSGTASVVCLLNNFYPREAKVQWKVDNALQSGNSQESVTEQDSKDSTYSLSSTLTLSKADYEKHKVYACEVTHQGLSSPVTKSFNRGEC
heavy 1: EVQLVESGGGLVKPGGSLRLSCAASGFTFSSYTMSWVRQAPGKGLEWVASISSSGSNTYYPDSVKGRFTISRDNAKNNLYLQMNSLRAEDTALYYCARFDYGSSLDSWGQGTLLTVSSDKTHTEVQLVESGGGLVKPGGSLRLSCAASGFTFSSYTMSWVRQAPGKGLEWVASISSSGSNTYYPDSVKGRFTISRDNAKNNLYLQMNSLRAEDTALYYCARFDYGSSLDSWGQGTLLTVSSDKTHTASTKGPSVFPLAPSSKSTSGGTAALGCLVKDYFPEPVTVSWNSGALTSGVHTFPAVLQSSGSLSSVVTVPSSSLGTQTYICNVNHKPSNTKVDKKVEPKSCDKTHTCPPCPAPELLGGPSVFLFPPKPKDTLYITREPEVTCVVVDVSHEDPEVKFNWYVDGVEVHNAKTKPREEQYNNASRVVSVLTVLHQDWLNGKEYKCKVSNKALPAPIEKTISKAKGQPREPQVYTLPPCRDELTKNQVSLWCLVKGFYPSDIAVEWESNGQPENNYKTTPPVLDSDGSFFKKLTVDKSRWQQGNVFSCSVMHEALHNHYTQKSLSLSPG
heavy 2: QVQLVQSGAEVVKPGSSVKVSCEASGFTFTDSVITWVRQRPGQGLEWIGEIYPGSGNFYYNEKFQGRVTITADKSTSTAYMELSSLRSEDTAVYFCAMRRSSWGQGTLVTVSSASTKGPSVFPLAPSSKSTSGGTAALGCLVKDYFPEPVTVSWNSGALTSGVHTFPAVLQSSGSLSSVVTVPSSSLGTQTYICNVNHKPSNTKVDKKVEPKSCDKTHTCPPCPAPELLGGPSVFLFPPKPKDTLYITREPEVTCVVVDVSHEDPEVKFNWYVDGVEVHNAKTKPREEQYNNASRVVSVLTVLHQDWLNGKEYKCKVSNKALPAPIEKTISKAKGQPREPQVCTLPPSRDELTKNQVSLSCAVKGFYPSDIAVEWESNGQPENNYKTTPPVLDSDGSFFLVSKLTVDKSRWQQGNVFSCSVMHEALHNRFTQKSLSLSPG
light 2: DVVMTQTPLSLSVTPGQPASISCKSSQTIVHSNSKTYLEWYLQKPGQSPQLLIYKVSSRFSGVPDRFSGSGSGTDFTLKISRVEAEDVGVYYCFQGSHVPLTFGQGTKLEIKRTVAAPSVFIFPPSDEQLKSGTASVVCLLNNFYPREAKVQWKVDNALQSGNSQESVTEQDSKDSTYSLSSTLTLSKADYEKHKVYACEVTHQGLSSPVTKSFNRGEC
notes: Constant regions with knob-in-hole, NNAS, YTE and RF variants
B2: triAb 3423 (bispecific antibody, human IgG1, kappa)
light 1: EIVLTQSPDFLSVTPKEKVTLSCRASQSISNYLHWYQQKSDQSPKLLIKYASQSISGIPSRFSGSGSGTDFTLSINSVEAEDAATYFCQQSKSWPRTFGGGTKLEIKDKTHTEIVLTQSPDFLSVTPKEKVTLTCRASQSISNNLHWYQQKSDQSPKLLIKYASQSISGIPSRFSGSGSGTDFTLTINSVEAEDAATYFCQQSKSWPRTFGGGTKLEIKDKTHTRTVAAPSVFIFPPSDEQLKSGTASVVCLLNNFYPREAKVQWKVDNALQSGNSQESVTEQDSKDSTYSLSSTLTLSKADYEKHKVYACEVTHQGLSSPVTKSFNRGEC
heavy 1: EVQLVESGGGLVKPGGSLRLSCAASGFTFSSYTMSWVRQAPGKGLEWVASISSSGSNTYYPDSVKGRFTISRDNAKNNLYLQMNSLRAEDTALYYCARFDYGSSLDSWGQGTLLTVSSDKTHTEVQLVESGGGLVKPGGSLRLSCAASGFTFSSYTMSWVRQAPGKGLEWVASISSSGSNTYYPDSVKGRFTISRDNAKNNLYLQMNSLRAEDTALYYCARFDYGSSLDSWGQGTLLTVSSDKTHTASTKGPSVFPLAPSSKSTSGGTAALGCLVKDYFPEPVTVSWNSGALTSGVHTFPAVLQSSGSLSSVVTVPSSSLGTQTYICNVNHKPSNTKVDKKVEPKSCDKTHTCPPCPAPELLGGPSVFLFPPKPKDTLYITREPEVTCVVVDVSHEDPEVKFNWYVDGVEVHNAKTKPREEQYNNASRVVSVLTVLHQDWLNGKEYKCKVSNKALPAPIEKTISKAKGQPREPQVYTLPPCRDELTKNQVSLWCLVKGFYPSDIAVEWESNGQPENNYKTTPPVLDSDGSFFKKLTVDKSRWQQGNVFSCSVMHEALHNHYTQKSLSLSPG
heavy 2: QVQLVQSGAEVVKPGSSVKVSCEASGFTFTDSVITWVRQRPGQGLEWIGEIYPGSGNFYYNEKFQGRVTITADKSTSTAYMELSSLRSEDTAVYFCAMRRSSWGQGTLVTVSSASTKGPSVFPLAPSSKSTSGGTAALGCLVKDYFPEPVTVSWNSGALTSGVHTFPAVLQSSGSLSSVVTVPSSSLGTQTYICNVNHKPSNTKVDKKVEPKSCDKTHTCPPCPAPELLGGPSVFLFPPKPKDTLYITREPEVTCVVVDVSHEDPEVKFNWYVDGVEVHNAKTKPREEQYNNASRVVSVLTVLHQDWLNGKEYKCKVSNKALPAPIEKTISKAKGQPREPQVCTLPPSRDELTKNQVSLSCAVKGFYPSDIAVEWESNGQPENNYKTTPPVLDSDGSFFLVSKLTVDKSRWQQGNVFSCSVMHEALHNRFTQKSLSLSPG
light 2: DVVMTQTPLSLSVTPGQPASISCKSSQTIVHSNSKTYLEWYLQKPGQSPQLLIYKVSSRFSGVPDRFSGSGSGTDFTLKISRVEAEDVGVYYCFQGSHVPLTFGQGTKLEIKRTVAAPSVFIFPPSDEQLKSGTASVVCLLNNFYPREAKVQWKVDNALQSGNSQESVTEQDSKDSTYSLSSTLTLSKADYEKHKVYACEVTHQGLSSPVTKSFNRGEC
B3: triAb 3437 (bispecific antibody, human IgG1, kappa)
light 1: EIVLTQSPDFLSVTPKEKVTLTCRASQSIGNNLHWYQQKSDQSPKLLIKYASQSISGIPSRFSGSGSGTDFTLTINSVEAEDAATYFCQQSKSWPRTFGGGTKLEIKDKTHTEIVLTQSPDFLSVTPKEKVTLSCRASQSISNYLHWYQQKSDQSPKLLIKYASQSISGIPSRFSGSGSGTDFTLSINSVEAEDAATYFCQQSKSWPRTFGGGTKLEIKDKTHTRTVAAPSVFIFPPSDEQLKSGTASVVCLLNNFYPREAKVQWKVDNALQSGNSQESVTEQDSKDSTYSLSSTLTLSKADYEKHKVYACEVTHQGLSSPVTKSFNRGEC
heavy 1: EVQLVESGGGLVKPGGSLRLSCAASGFTFSSYTMSWVRQAPGKGLEWVASISSSGSNTYYPDSVKGRFTISRDNAKNNLYLQMNSLRAEDTALYYCARFDYGSSLDSWGQGTLLTVSSDKTHTEVQLVESGGGLVKPGGSLRLSCAASGFTFSSYTMSWVRQAPGKGLEWVASISSSGSNTYYPDSVKGRFTISRDNAKNNLYLQMNSLRAEDTALYYCARFDYGSSLDSWGQGTLLTVSSDKTHTASTKGPSVFPLAPSSKSTSGGTAALGCLVKDYFPEPVTVSWNSGALTSGVHTFPAVLQSSGSLSSVVTVPSSSLGTQTYICNVNHKPSNTKVDKKVEPKSCDKTHTCPPCPAPELLGGPSVFLFPPKPKDTLYITREPEVTCVVVDVSHEDPEVKFNWYVDGVEVHNAKTKPREEQYNNASRVVSVLTVLHQDWLNGKEYKCKVSNKALPAPIEKTISKAKGQPREPQVYTLPPCRDELTKNQVSLWCLVKGFYPSDIAVEWESNGQPENNYKTTPPVLDSDGSFFKKLTVDKSRWQQGNVFSCSVMHEALHNHYTQKSLSLSPG
heavy 2: QVQLVQSGAEVVKPGSSVKVSCEASGFTFTDSVITWVRQRPGQGLEWIGEIYPGSGNFYYNEKFQGRVTITADKSTSTAYMELSSLRSEDTAVYFCAMRRSSWGQGTLVTVSSASTKGPSVFPLAPSSKSTSGGTAALGCLVKDYFPEPVTVSWNSGALTSGVHTFPAVLQSSGSLSSVVTVPSSSLGTQTYICNVNHKPSNTKVDKKVEPKSCDKTHTCPPCPAPELLGGPSVFLFPPKPKDTLYITREPEVTCVVVDVSHEDPEVKFNWYVDGVEVHNAKTKPREEQYNNASRVVSVLTVLHQDWLNGKEYKCKVSNKALPAPIEKTISKAKGQPREPQVCTLPPSRDELTKNQVSLSCAVKGFYPSDIAVEWESNGQPENNYKTTPPVLDSDGSFFLVSKLTVDKSRWQQGNVFSCSVMHEALHNRFTQKSLSLSPG
light 2: DVVMTQTPLSLSVTPGQPASISCKSSQTIVHSNSKTYLEWYLQKPGQSPQLLIYKVSSRFSGVPDRFSGSGSGTDFTLKISRVEAEDVGVYYCFQGSHVPLTFGQGTKLEIKRTVAAPSVFIFPPSDEQLKSGTASVVCLLNNFYPREAKVQWKVDNALQSGNSQESVTEQDSKDSTYSLSSTLTLSKADYEKHKVYACEVTHQGLSSPVTKSFNRGEC

What follows are binders tested against T1, human beta-DG extracellular domain (assay: SPR (Biacore T100), antibody captured on Protein G chip, BDG in flow, 1:1 model).

Binder | Kd [nM] | koff [s⁻¹] | kon [M⁻¹ s⁻¹]
B1 | 2.08 | 0.00326 | 1.57e+06
B2 | 1.6 | 0.00433 | 2.7e+06
B3 | 1.87 | 0.0045 | 2.41e+06
